Experimental findings from IntAct's records for PubMed 26766587 are described below.

The chains are these.
B1: N-myc proto-oncogene protein (Homo sapiens), P04198 (parent)
chain: MPSCSTSTMPGMICKNPDLEFDSLQPCFYPDEDDFYFGGPDSTPPGEDIWKKFELLPTPPLSPSRGFAEHSSEPPSWVTEMLLENELWGSPAEEDAFGLGGLGGLTPNPVILQDCMWSGFSAREKLERAVSEKLQHGRGPPTAGSTAQSPGAGAASPAGRGHGGAAGAGRAGAALPAELAHPAAECVDPAVVFPFPVNKREPAPVPAAPASAPAAGPAVASGAGIAAPAGAPGVAPPRPGGRQTSGGDHKALSTSGEDTLSDSDDEDDEEEDEEEEIDVVTVEKRRSSSNTKAVTTFTITVRPKNAALGPGRAQSSELILKRCLPIHQQHNYAAPSPYVESEDAPPQKKIKSEASPRPLKSVIPPKAKSLSPRNSDSEDSERRRNHNILERQRRNDLRSSFLTLRDHVPELVKNEKAAKVVILKKATEYVHSLQAEEHQLLLEKEKLQARQQQLLKKIEHARTC
partner: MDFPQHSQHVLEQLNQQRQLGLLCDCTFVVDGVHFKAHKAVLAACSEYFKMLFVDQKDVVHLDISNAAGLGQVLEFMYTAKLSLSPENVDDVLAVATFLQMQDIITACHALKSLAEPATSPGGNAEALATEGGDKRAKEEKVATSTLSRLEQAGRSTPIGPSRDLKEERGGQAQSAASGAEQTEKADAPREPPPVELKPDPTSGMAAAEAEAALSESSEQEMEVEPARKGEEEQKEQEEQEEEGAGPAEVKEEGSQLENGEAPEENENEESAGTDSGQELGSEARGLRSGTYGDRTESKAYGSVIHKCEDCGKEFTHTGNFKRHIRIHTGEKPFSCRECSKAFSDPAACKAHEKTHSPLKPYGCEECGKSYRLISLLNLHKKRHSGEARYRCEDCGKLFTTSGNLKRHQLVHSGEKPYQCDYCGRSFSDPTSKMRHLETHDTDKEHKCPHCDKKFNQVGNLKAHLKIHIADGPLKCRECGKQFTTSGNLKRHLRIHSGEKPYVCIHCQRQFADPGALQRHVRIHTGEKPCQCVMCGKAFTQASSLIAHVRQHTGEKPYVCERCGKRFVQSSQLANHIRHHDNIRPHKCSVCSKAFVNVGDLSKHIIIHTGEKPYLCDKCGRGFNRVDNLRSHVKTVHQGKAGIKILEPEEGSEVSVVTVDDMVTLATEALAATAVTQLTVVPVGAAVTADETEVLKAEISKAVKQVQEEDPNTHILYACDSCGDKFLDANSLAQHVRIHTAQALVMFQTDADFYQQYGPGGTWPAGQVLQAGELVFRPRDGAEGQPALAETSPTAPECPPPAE

The variants in this assay derive from B1. The note with it: with zbt17_human ZBTB17, Q13105.
Consider V421D, for which the “effect of a mutation on the interaction” value is given as “decreasing interaction strength”.
